Test results reported in publication PMC11880807.

T1: EXOG-ΔC68 (human, UniProt Q9Y2C4 59-300)
T1 sequence: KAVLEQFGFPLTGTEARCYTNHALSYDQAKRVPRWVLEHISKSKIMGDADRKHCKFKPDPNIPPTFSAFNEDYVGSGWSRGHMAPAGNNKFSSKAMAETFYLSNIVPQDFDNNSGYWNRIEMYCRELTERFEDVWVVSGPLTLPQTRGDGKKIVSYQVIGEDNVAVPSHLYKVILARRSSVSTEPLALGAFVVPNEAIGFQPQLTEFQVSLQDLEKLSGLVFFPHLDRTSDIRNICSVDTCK

T2: EXOG (EXOG-ΔN58) (human, UniProt Q9Y2C4 59-368)
T2 sequence: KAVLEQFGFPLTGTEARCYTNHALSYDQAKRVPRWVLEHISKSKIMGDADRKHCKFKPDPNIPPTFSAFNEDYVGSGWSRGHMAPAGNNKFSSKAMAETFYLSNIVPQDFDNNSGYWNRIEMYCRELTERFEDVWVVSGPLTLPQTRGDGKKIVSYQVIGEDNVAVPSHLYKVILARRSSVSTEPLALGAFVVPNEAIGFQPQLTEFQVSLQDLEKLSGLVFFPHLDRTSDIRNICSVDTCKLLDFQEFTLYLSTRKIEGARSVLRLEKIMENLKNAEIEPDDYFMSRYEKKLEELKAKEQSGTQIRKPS


Key:
Assay in all cases: MST
EXOG-ΔC68 [1] = target: T1, EXOG-ΔC68
EXOG-ΔC68 [2] = target: T1, EXOG-ΔC68; remark: listed apart in the source
EXOG (EXOG-ΔN58) = target: T2, EXOG (EXOG-ΔN58)

Row | Binder | Kd (EXOG-ΔC68 [1]) | binding result (EXOG-ΔC68 [2]) | Kd (EXOG (EXOG-ΔN58))
1 | AGUUCGUUAUCGUCGC (ssRNA) [ssRNA 16-mer O11] | 155 ± 31.9 nM | – | –
2 | AGTTCGTTATCGTCGC (ssDNA) [ssDNA 16-mer O10] | – | no binding | 25.1 ± 4.5 nM
